Experimental data reported in patent US20220025056A1.

Assays:
[1] = biological target: human ILT2 (LILRB1) expressed at the surface of transfected cells (human) (UniProt Q8NHL6); test: flow cytometry, CHO-ILT2 cells
[2] = biological target: ILT-2_6xHis recombinant protein (human) (UniProt Q8NHL6); test: Octet BLI, antibody on anti-mouse Fc sensor, soluble ILT2 analyte
Sequence of ILT-2_6xHis recombinant protein (human) (Q8NHL6 other isoform, or with tags, fused parts or gaps limits assumed): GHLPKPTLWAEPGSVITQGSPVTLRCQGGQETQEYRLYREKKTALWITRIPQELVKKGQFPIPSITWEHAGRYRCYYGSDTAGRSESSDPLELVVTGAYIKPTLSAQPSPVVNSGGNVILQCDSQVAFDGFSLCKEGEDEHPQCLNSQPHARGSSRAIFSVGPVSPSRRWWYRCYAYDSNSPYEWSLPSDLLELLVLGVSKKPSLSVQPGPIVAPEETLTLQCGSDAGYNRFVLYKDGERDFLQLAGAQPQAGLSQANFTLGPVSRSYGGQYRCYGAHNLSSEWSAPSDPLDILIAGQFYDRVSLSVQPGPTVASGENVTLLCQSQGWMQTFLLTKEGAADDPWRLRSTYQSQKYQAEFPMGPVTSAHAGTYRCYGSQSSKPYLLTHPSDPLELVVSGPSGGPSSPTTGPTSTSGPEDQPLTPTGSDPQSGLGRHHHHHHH

Sequence of human ILT2 (LILRB1) expressed at the surface of transfected cells (human) (Q8NHL6 24-650): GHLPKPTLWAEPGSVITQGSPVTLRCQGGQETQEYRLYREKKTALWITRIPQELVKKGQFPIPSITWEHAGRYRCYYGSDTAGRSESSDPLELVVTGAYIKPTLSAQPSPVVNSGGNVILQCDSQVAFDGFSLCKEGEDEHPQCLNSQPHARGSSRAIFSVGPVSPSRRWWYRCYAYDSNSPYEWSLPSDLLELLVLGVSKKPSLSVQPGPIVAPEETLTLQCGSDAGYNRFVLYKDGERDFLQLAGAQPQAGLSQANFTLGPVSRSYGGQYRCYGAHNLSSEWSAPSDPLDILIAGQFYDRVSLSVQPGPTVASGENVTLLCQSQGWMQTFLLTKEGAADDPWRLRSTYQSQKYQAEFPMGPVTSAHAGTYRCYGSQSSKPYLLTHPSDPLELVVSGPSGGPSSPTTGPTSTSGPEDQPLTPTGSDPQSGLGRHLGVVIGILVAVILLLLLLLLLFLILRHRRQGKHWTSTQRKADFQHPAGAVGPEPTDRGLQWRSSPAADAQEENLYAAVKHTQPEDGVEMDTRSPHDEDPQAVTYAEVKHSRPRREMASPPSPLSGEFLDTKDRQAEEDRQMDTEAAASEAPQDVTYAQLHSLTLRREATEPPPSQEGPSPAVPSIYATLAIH

GHI/75 (antibody)
EC50 [1]: 5.39 µg/mL | Kd [2]: 28.1 nM | koff [2]: 0.00038 s⁻¹ | kon [2]: 13000 M⁻¹ s⁻¹
